Source: IntAct's records for PubMed 15023544

B1: 14-3-3 protein zeta/delta (Homo sapiens), P63104 (parent)
chain: MDKNELVQKAKLAEQAERYDDMAACMKSVTEQGAELSNEERNLLSVAYKNVVGARRSSWRVVSSIEQKTEGAEKKQQMAREYREKIETELRDICNDVLSLLEKFLIPNASQAESKVFYLKMKGDYYRYLAEVAAGDDKKGIVDQSQQAYQEAFEISKKEMQPTHPIRLGLALNFSVFYYEILNSPEKACSLAKTAFDEAIAELDTLSEESYKDSTLIMQLLRDNLTLWTSDTQGDEAEAGEGGEN

Variants of: B1
Details: with m3k5_human MAP3K5, Q99683
Chain of m3k5_human MAP3K5, Q99683 (Q99683 whole entry): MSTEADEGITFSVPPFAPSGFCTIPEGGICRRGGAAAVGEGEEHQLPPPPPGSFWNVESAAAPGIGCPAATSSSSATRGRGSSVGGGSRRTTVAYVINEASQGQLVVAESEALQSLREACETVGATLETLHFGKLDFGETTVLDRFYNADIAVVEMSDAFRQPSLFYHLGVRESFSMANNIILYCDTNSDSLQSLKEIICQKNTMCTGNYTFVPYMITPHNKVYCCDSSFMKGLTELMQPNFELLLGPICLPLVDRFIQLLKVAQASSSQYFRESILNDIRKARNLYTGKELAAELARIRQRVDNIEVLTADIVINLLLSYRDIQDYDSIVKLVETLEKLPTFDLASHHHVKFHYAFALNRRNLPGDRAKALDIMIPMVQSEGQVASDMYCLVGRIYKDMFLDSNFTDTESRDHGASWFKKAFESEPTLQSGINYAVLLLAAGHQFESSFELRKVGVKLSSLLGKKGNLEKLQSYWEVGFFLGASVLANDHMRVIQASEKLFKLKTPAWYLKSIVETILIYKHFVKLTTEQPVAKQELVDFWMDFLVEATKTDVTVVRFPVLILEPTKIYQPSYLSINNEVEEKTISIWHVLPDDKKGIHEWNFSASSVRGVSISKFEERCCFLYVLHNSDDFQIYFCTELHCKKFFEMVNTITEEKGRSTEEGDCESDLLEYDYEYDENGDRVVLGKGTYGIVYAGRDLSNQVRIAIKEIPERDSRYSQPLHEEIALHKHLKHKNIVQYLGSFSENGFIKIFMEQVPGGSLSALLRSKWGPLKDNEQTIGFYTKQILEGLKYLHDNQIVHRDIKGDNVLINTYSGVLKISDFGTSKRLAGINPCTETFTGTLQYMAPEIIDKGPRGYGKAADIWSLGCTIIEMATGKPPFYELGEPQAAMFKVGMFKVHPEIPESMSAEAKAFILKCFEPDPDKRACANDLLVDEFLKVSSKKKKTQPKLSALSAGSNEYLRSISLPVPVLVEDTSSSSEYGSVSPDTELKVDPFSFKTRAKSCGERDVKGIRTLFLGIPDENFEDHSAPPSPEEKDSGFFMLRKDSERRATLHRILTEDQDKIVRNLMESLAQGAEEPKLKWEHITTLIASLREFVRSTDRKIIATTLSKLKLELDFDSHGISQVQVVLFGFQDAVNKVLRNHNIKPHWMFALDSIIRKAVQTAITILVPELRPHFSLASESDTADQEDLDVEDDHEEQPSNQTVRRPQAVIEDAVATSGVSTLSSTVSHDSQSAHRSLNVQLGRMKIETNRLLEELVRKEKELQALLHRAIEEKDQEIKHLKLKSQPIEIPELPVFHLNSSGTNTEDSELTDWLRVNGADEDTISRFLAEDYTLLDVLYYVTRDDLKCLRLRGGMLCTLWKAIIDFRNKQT

Variant	effect of a mutation on the interaction
K49E;R56E;R60E;V176D;L220E	decreasing interaction
